Test results taken from the supplement of paper PMC9732359.
± gives the uncertainty stated by the source.

Experiment: protein stability index of a GFP-peptide fusion (yeast GPS) (PSI 1-4); higher = more stable; sorted into four equal gates, so the index is relative within each strain
Outline: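 The protein stability index combines read frequencies across sorting gates, each weighted by its gate number and then summed. To obtain those frequencies, a pooled yeast library of GFP fusions to tiled 17-residue yeast protein peptides, on a plasmid also expressing Cherry, was grown to mid-log phase in leucine-free medium. The cells were sorted into four equal gates by GFP/Cherry ratio before plasmid amplification by PCR and Illumina sequencing.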

| Sequence | protein stability index (ubr1∆) | protein stability index (doa10∆) | protein stability index (pdr5∆) | protein stability index (san1∆) |
| --- | --- | --- | --- | --- |
| EIKNWISDIPYVISLSY [YMR129W/POM152] | 1.27 ± 0.27 | – | – | – |
| EILEHICYDVNDWQMLE [RPB2] | 2.98 ± 0.081 | 2.84 ± 0.12 | 3.02 ± 0.086 | 2.74 ± 0.08 |
| EILGTAQSVGCRVDFKN [RPL12A] | 2.94 ± 0.055 | 2.12 ± 0.06 | 2.25 ± 0.06 | 2.46 ± 0.11 |
| EILNIFKHISVKDFTSL [RPO21] | 1.85 ± 0.046 | 2.41 ± 0.14 | 2.23 ± 0.12 | 2.14 ± 0.11 |
| EILNLSTQELQTRAKLL [RPT5] | 3.08 ± 0.085 | – | 2.18 ± 0.18 | 3.04 ± 0.091 |
| EILTSVDVLGTHSQTGT [SIR4] | 3.07 ± 0.037 | 2.93 ± 0.069 | 2.76 ± 0.063 | 2.87 ± 0.067 |
| EINTALNTLLVTSADSN [SWI1] | 1.74 ± 0.065 | 2.05 ± 0.065 | 2.16 ± 0.048 | 2.38 ± 0.064 |
| EINWRHASFLCSFITQD [FAS1] | 2.14 ± 0.15 | 2.1 ± 0.15 | 2.42 ± 0.12 | 2.17 ± 0.21 |
| EIPETGEYSVKLLKGAT [FAS2] | 3.35 ± 0.078 | 3.18 ± 0.12 | 3.46 ± 0.089 | 3.32 ± 0.049 |
| EIPSEDQNEFLLERTRE [FAS2] | 3.22 ± 0.079 | 3.33 ± 0.094 | 3.3 ± 0.12 | 3.35 ± 0.081 |
| EISSQIEILVKDNECSS [RRI2] | 1.16 ± 0.069 | 1.5 ± 0.11 | 1.25 ± 0.15 | – |
| EITHPPSTTDDENGDKN [SWI3] | 3.31 ± 0.061 | 3.09 ± 0.074 | 3.07 ± 0.072 | 3.19 ± 0.055 |
| EIYYDPDPRSTVIPEDE [RPO21] | 3.06 ± 0.098 | 3.04 ± 0.11 | 3.07 ± 0.21 | 3.23 ± 0.14 |
| EKEEEAKEESDDDMGFG [RPP2B] | 3.43 ± 0.07 | 3.05 ± 0.2 | 3.29 ± 0.14 | 2.84 ± 0.15 |
| EKERLESLTKEISAAHN [SMC3] | 3.42 ± 0.19 | 3 ± 0.26 | 3.22 ± 0.15 | 2.79 ± 0.13 |
| EKFDLERVTALKNCKIS [SMC1] | – | 3.44 ± 0.2 | – | 3.38 ± 0.11 |
| EKFPNDVKLLNPIDIKR [RPP1] | 3.01 ± 0.039 | 2.91 ± 0.062 | 2.97 ± 0.041 | 3.14 ± 0.038 |
| EKGPQVCAKLFGNIQKV [RPO21] | 2.09 ± 0.06 | 2.63 ± 0.08 | 2.29 ± 0.057 | 2.29 ± 0.079 |
| EKKPASKAPAEKKPAAK [HTB1] | 3.11 ± 0.054 | 3.13 ± 0.08 | 3.19 ± 0.063 | 3 ± 0.059 |
| EKLSSEIENLDKELRKT [YIL149C/MLP2] | 3 ± 0.11 | 3.12 ± 0.11 | 3.21 ± 0.12 | 3.12 ± 0.069 |
| EKLTMVFQDNVYKIYNH [SIN4] | 1.81 ± 0.037 | 2.08 ± 0.06 | 2.53 ± 0.053 | 1.6 ± 0.086 |
| EKPAVKSYASLLAQLNG [RPT3] | 2.76 ± 0.057 | 2.8 ± 0.082 | 2.6 ± 0.097 | 2.81 ± 0.082 |

| Sequence | protein stability index (ubr1∆) | protein stability index (doa10∆) | protein stability index (pdr5∆) | protein stability index (san1∆) |
| --- | --- | --- | --- | --- |
| EKPLVVPVKLEEIKTVD [RRP6] | 2.38 ± 0.068 | 2.52 ± 0.13 | 2.42 ± 0.07 | 2.76 ± 0.16 |
| EKRWNDELELEDAIHIA [PRE8] | 3.23 ± 0.2 | 3.35 ± 0.17 | 3.25 ± 0.1 | 3.26 ± 0.13 |
| EKSAYKFFHNGMIYNKL [FAS2] | 2.83 ± 0.064 | 2.92 ± 0.086 | 2.81 ± 0.07 | 2.88 ± 0.071 |
| EKSKALESEIASSSAKL [SMC2] | 2.97 ± 0.075 | 2.64 ± 0.071 | 2.96 ± 0.078 | 3.03 ± 0.043 |
| EKSQEVEYVDPTVNRVP [RPN7] | 3.74 ± 0.27 | – | – | – |
| EKVRPTPGEVASKAIVQ [MCD1] | 2.84 ± 0.25 | 3.16 ± 0.14 | 2.42 ± 0.084 | 1.55 ± 0.29 |
| EKVSSVLSALEGKSVDE [RPP2A] | 1.87 ± 0.038 | 2.57 ± 0.077 | 2.09 ± 0.049 | 2.16 ± 0.078 |
| ELAVENPLAKTMADAVR [SEC65] | 1.77 ± 0.026 | 3 ± 0.048 | 2.94 ± 0.039 | 2.5 ± 0.047 |
| ELCKKNESKIKELNEKI [RPN7] | 2.47 ± 0.13 | 3.2 ± 0.12 | 2.73 ± 0.098 | 2.27 ± 0.11 |
| ELEHLTKKSKLESTKAE [DSN1] | 3.13 ± 0.063 | 3.37 ± 0.1 | 3.08 ± 0.081 | 3.32 ± 0.095 |
| ELEKKYHGNECEINYYE [SRB8] | 3.17 ± 0.066 | 3.04 ± 0.11 | 3.19 ± 0.086 | 3.26 ± 0.064 |
| ELIIDKVTCSSNSSSSP [MED1] | 2.72 ± 0.048 | 2.72 ± 0.058 | 2.75 ± 0.065 | 2.79 ± 0.054 |
| ELIVSEEIPINSSEQES [SIR3] | 2.18 ± 0.037 | 2.28 ± 0.054 | 2.24 ± 0.051 | 2.82 ± 0.053 |
| ELKKKRKIKRLEKFLQG [SRP72] | 3.25 ± 0.049 | 3.22 ± 0.073 | 3.24 ± 0.091 | 3.19 ± 0.09 |
| ELQKIWQIEEAGNSQIT [SRB5] | 3.05 ± 0.066 | 2.77 ± 0.08 | 3.04 ± 0.11 | 3.08 ± 0.048 |
| ELQKIYDRHQSSSKQQS [SMC4] | 3.57 ± 0.051 | 3.33 ± 0.084 | 3.33 ± 0.095 | 3.35 ± 0.08 |
| ELRSLSKKDFKIIDNPK [YMR129W/POM152] | 2.93 ± 0.07 | 2.46 ± 0.058 | 2.6 ± 0.06 | 2.24 ± 0.081 |
| ELSKEEKERLESLTKEI [SMC3] | 3.17 ± 0.077 | 3.01 ± 0.13 | 3.13 ± 0.15 | 3 ± 0.059 |
| ELSTDIILKTRQINKLI [SRB7] | 1.2 ± 0.13 | 1.2 ± 0.13 | 1.19 ± 0.066 | 1.37 ± 0.23 |
| ELTKEEAMYKLQLASLQ [SMC3] | 2.64 ± 0.053 | 2.89 ± 0.1 | 2.88 ± 0.068 | 2.55 ± 0.084 |
| ELVIRLEKDAADCQAEL [YIL149C/MLP2] | 3.07 ± 0.22 | 2.93 ± 0.25 | 3.05 ± 0.18 | 3.18 ± 0.22 |
